{"source": "the nanobody polyreactivity screen of Harvey et al. (2022)"}
{"experiment": "yeast display, Sf9 membrane polyspecificity reagent, FACS + sequencing; frameworks hold sequencing errors", "procedure,_shortened": "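Galactose-induced (36–48 hours) yeast carrying a synthetic nanobody display library were exposed to 10% biotinylated, detergent-solubilized Sf9 membrane reagent at 4 °C for 1 hour. FACS followed streptavidin microbead enrichment, using low and high (top ~1%) gates for expression (anti-HA) and reagent binding (streptavidin). Colony PCR, MiSeq 2 × 250 sequencing and CDR-length filtering followed. Labels for polyreactivity reflect the gate of origin.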"}
{"sequence": "QVQLQESGGLVQAGGLRLSCAASGSVSYQEAMGWYRQSPGKERELVATISFGANTNYADSVKGRFTISRDNAKNTVYLQMNSLKPEDTAVYYCAAESLFDDYYGYWGQGTQVTVSS", "polyreactivity (PSR sort gate)": "low polyreactivity"}
{"sequence": "QVQLQESGGLVQAGGSLRLSCAASGSISGRNVMGWYRQAPGKEREFVASITDGSSTNDADSVIGRFTISRDNAKNTVYLQMNSLKPKDTAVYYCAAYAHRAKSFGYWGRGTQVTVSS", "polyreactivity (PSR sort gate)": "low polyreactivity"}
{"sequence": "QVQLQESGGRLVQAGGSLRLSCAPSGDILEADDMGWYRQAPGKERELVASITDGGSTNCADSMKGRSTICRDNAKITVYLQMNSLKPEDTAVYYCAADAWDLYSDGQEYNYWGQGTQVTVSS", "polyreactivity (PSR sort gate)": "high polyreactivity"}
{"sequence": "QVQLQESGGSLVQAGGILRLSCAACGNIFPSAVMGWYRQALGKEREFVATINSGSYTYYADSVKVRFTISRDNAKNTVYLQMNSLKLDDSAVYYCAAYFKLPAWHTYWGQGTQVTVSS", "polyreactivity (PSR sort gate)": "low polyreactivity"}
{"sequence": "QVQLQESGGVLVQAVDRQRLSCAASGNIFLFTDMGWYRQAPGKERELVAAINAGSTTYYADSVKGRFTISRDNAKNTVYLQMNSLNPEDTEVYYCAVYYLGSGTFGYWGQGAQVTVSS", "polyreactivity (PSR sort gate)": "high polyreactivity"}
{"sequence": "QVQLQESGGVQAGGSLRLSCAASGYISRSDVMGWYRQAPVKERELVATINNGTLTYYADSVKGRFTISRDNAKNTVYLQMNSLKPEDTPVHYCAVLQSDTDSLYYWGQGSQVTVSS", "polyreactivity (PSR sort gate)": "low polyreactivity"}
{"sequence": "QVQLQESGRGLVQAGGSLLSCAASGTISWVDEMGWYRHAPGNERELVAGIAGGGNTNYADSLKGRFTISRDNAKNTVYLHMNSQDTAVYYCAVVVFGRGTHIYWCQGTQVTVSS", "polyreactivity (PSR sort gate)": "high polyreactivity"}
{"sequence": "QVQLQESGRRPGAAGGSPRMSCAASGNIFCVAVMGRYRQAPGKERELVASIGFGCTTYYADSVKCRFTISRDNAKNTVYLQMFSLKPEDTAVYYCAAPHYDWGELDYWGQGTQVPVSS", "polyreactivity (PSR sort gate)": "low polyreactivity"}
{"sequence": "QVQLQESGRRPGAAGGSPRMSCAASGNIFWVAVMGRYRQAPGKERELVASIGFGCTTYYADSVKCRFTISRDNAKKTVYLQMISLKPEDTAVYYCAAPNYDWGELDYWGQGTQVPVSS", "polyreactivity (PSR sort gate)": "low polyreactivity"}
{"sequence": "QVQLQESGSGLVQAGGSLRLSCAASGNISHYNDMGWYRQAPGKEREPVATINSGSITYYADSVKGRFTISRDNAKNTVYLQMNSLKPEDTAVYYCAVKQHGYFYLDYWGQGTQVTVSS", "polyreactivity (PSR sort gate)": "high polyreactivity"}
{"sequence": "QVQLQESGVGLVQASGSIFHEPNMGSYRQAPGKERELVAGISSGANTYYADSVKGRFTISRDNAKNTVYLQMNSLKPEDTAVYHCAVVVHLYTDLRYWGQDTQVTVSS", "polyreactivity (PSR sort gate)": "high polyreactivity"}
{"sequence": "QVQLQESRGGLVKAGGSLRLSCAATGNISPRDAMGWYRQAPGEERDLVASNAYSAITYYADGVKGRYTISRDNAKNTVYLQMNSLKPEDTEVYYCAVYQFTYPVFPAYWGQGTQVTVSS", "polyreactivity (PSR sort gate)": "low polyreactivity"}
{"sequence": "QVQLQESRGGLVQAGGSLRLSCAASGTISDRAGMGWYRQAPAKNAIVATIDRGTNTNYADSVKGRFTISRDNAKNTVYLQMNSLKPEDTAVYNCAADGRYYIYLDYWGQGTQVTVSS", "polyreactivity (PSR sort gate)": "low polyreactivity"}
{"sequence": "QVQLQESSGGLVQAGGSLRMSCAASGTIFHFHIMGWYRQAPGKESEFVAAISYGTSTYYADSVKGRFTISRDNAKNTVYLQMNSQKPEDSAVNYCAVYDYLEVYCWYWGQGTQVTVSS", "polyreactivity (PSR sort gate)": "low polyreactivity"}
{"sequence": "QVQLQESVDGLVQAGGSLSLSSAASGTIFSDYGMGGYRQAPGKERELLAGISDGCNTNYTDSVKGRCTISRDNAHRVSADEQPETGGYRGVLLRGSERWLLFYVYWGQGTQVTVSS", "polyreactivity (PSR sort gate)": "high polyreactivity"}
{"sequence": "QVQLQESVGGLVQAGGSLRLSCAASGNIFPTDRMGWYRQAPGKELEFVATISDGGSTNYADSVKGRFTISRDNAKNTVYLQMNSLKPEDTAVYYCAVWSLGRWRHYYWGQGTQVTVSS", "polyreactivity (PSR sort gate)": "low polyreactivity"}
{"sequence": "QVQLQESVGGLVQAGGSLRLSCAASGNIFPTDRMGWYRQAPGKELEFVATISHGGSTNYADSVKGRFTISRDNAKNTVYLQMNSLKPEDTAVYYCAVWSLGRWRHYYWGQVTQVTVSS", "polyreactivity (PSR sort gate)": "low polyreactivity"}
{"sequence": "QVQLQESVGGLVQAGGTLRMSCAASGSFSADEDMGWYRQAQGKEREFVAGISVGGNTNYADSVKGRFTISRENAKNTVYLQINSLKPEETAVYYCAADYKPTSRSNTYYYWGQGTQVTVSS", "polyreactivity (PSR sort gate)": "high polyreactivity"}
{"sequence": "QVQLQGSGGGLVQAGGSLRLSCAASGYNFQNVPMGWNRQAPGKERELVAGIDNGTSTNYADSVNGRFTISRDNAKNTVYLQMNSLKPEDTAVYYCAAAGQADDTLGYWGQGTQVTVSS", "polyreactivity (PSR sort gate)": "low polyreactivity"}
{"sequence": "QVQLQVSGGDLVQAGGSLRLSCAASGTIYGLISMGWYRQAPGKEREFVAAITDGGNTNYADSVKGRFTISRDNAKYTVYLQMISLKPEDTAVYYCAVLFSDDAYYAYWGQGTQVTVSS", "polyreactivity (PSR sort gate)": "low polyreactivity"}
{"sequence": "QVQLQVSGGGLVQAGGNLRLSCAASGTISDSVGMGWYRQAPGKEREFVAGITLGGITNYADSVRGRFTISRDNGKNLYLQMKSLKPEETAVYYCAVDDYRYINYEFWGQGTQVTVSS", "polyreactivity (PSR sort gate)": "high polyreactivity"}
{"sequence": "QVQLQVSGGGLVQAGGNLRLSCASSCTISESFGMGWNRQAPGKEREFVAGITMGGITNYADSVRGRFTISRDNAKNMYLQMNSLKPEDTAVYYCEVDDYRYINYEFWGQGTQVSVSS", "polyreactivity (PSR sort gate)": "high polyreactivity"}
{"sequence": "QVQLQVSGGVLVQAGGSLRLTCAASGSIFLTSEMGWYRQAPGKERELVAAIATGTSTNYADSVKGRFTISRDNAKNTVYLQMNSLKPEDTAVYYCETYHYWGQGTQVTVSS", "polyreactivity (PSR sort gate)": "low polyreactivity"}
{"sequence": "QVQLRESGCGLVQAGGNLRLSCAARGNIFDADIMGWYRQAPGKERELVASITDGGSTNYADSVRCRFTISRDNAKNTVYLQMNSLKPEDTAVYYCTAIAYPDIPTYFDHDSDYFYWGQGTQVTVSS", "polyreactivity (PSR sort gate)": "high polyreactivity"}
{"sequence": "QVQLVASAGGLVQAGGSLRFSCAASGRSFKRYTMGWYRQAPGKERELVAAITKRADRTNYADSVKGRFTISRDNAKNTVYLQMNSLKPEDTAVYYCYADGQNDLPSNGYISYKYDYWGQGTQVTVSS", "polyreactivity (PSR sort gate)": "low polyreactivity"}
{"sequence": "QVQLVASGGGLDQAGGSLRLSCAASGFPFQENAMGWYRQAPGKERELVAAISYGGGSPSYADSVKGRFTISRDNAKNTVYVQMNSLKPEDNAVYYCAADGGSAYAWYFAELYGYWGQGTQVTVSS", "polyreactivity (PSR sort gate)": "low polyreactivity"}
{"sequence": "QVQLVASGGGLLQAGGSLRLSCAASGSIVGLYAMGWYRQAPGNETELVAAISWSAGRTYYADTVKGRFTISRDNAKNTVYLQMNSLIPEETAVYYCNAPYLHYVFVFTDYSQRYDYWGQGTQVTVSS", "polyreactivity (PSR sort gate)": "high polyreactivity"}
{"sequence": "QVQLVASGGGLVQAGGSLRLSCAASGSIFSYYTMGWYSQAPGKERELVASISRSGGRTNYADSVKGRFTISRDNAKNTVYLQMNSLKPEDTAVYYCKTERWGPYPHKRYNYWGQGTQVTVSS", "polyreactivity (PSR sort gate)": "high polyreactivity"}
{"sequence": "QVQLVASGGGLVQAGGSLRLSCAASGSISFYNAMGWYRQAPGKERELVAAINRSGGSTNYADSVKGLFTISRDNGKNTVYLQMNSLKPEDTAVYYCAAVSSKGNRHVYDYWGQGTQVTGSS", "polyreactivity (PSR sort gate)": "low polyreactivity"}
{"sequence": "QVQLVASGGGLVQAGGSLRLSCAASGSTFYYNAMGWSRQAPGKERELVAVISTSDGSTNYADSVKRRFTISSDNAKNTVYLQMISLKPEDTAVYYCAADYSESRRFDYWGQGTQVTVSS", "polyreactivity (PSR sort gate)": "low polyreactivity"}
{"sequence": "QVQLVASGGGLVQAGGSLRLSCAATGSIFYINTMGWYRQAPGKERELVAAINFSDGRTYYADSVMGRFTISRDNAKNTVYLQIHSLKPEDTAVYYCAADVYPSEYDYWGQGTQVTVSS", "polyreactivity (PSR sort gate)": "low polyreactivity"}
{"sequence": "QVQLVASGGGLVQSGGSLRLSCASSGSTFFRYAMGWYRHAPGKERELVAAISWSGGPTYYADSVKGRFTISRDNAKNTVFLQMNSLKPQDTAVYYCNAVRQGHILDYWGQGSQVTVSS", "polyreactivity (PSR sort gate)": "low polyreactivity"}
{"sequence": "QVQLVDSAGALVQAGGSLRLSCAASGRTFRYNAMGWYRQAPGKERELVAAITQSGGSTYYADSVKGRFTISRDNAKNTVYLQMNSQKPEDTAVYYCAKVRERINYDYWGQGTQVTVSS", "polyreactivity (PSR sort gate)": "low polyreactivity"}
{"sequence": "QVQLVDSAGCLVQAGGSLRLSCAASGRIFVYYVMGWYRQAPGKERELVASITFRGSRTYYADSVKGRFTISRDYAKNTVYLQMISLKPEDTAVYYCNADVWASGSRGDGYWGQGTQVTVAS", "polyreactivity (PSR sort gate)": "low polyreactivity"}
{"sequence": "QVQLVDSAGCLVQAGGTLRLSGSASGSIFDAYAMGWYRQAPGKERELVASITSGGRTTYADSVKGRFTISRDNALNTVYLQMNSLKPEDTAVYYCAALRPGPRDDYWGQGSQVTVSS", "polyreactivity (PSR sort gate)": "high polyreactivity"}
{"sequence": "QVQLVDSCGGLVQAGGSLRLSCHASGLTFFANAMGWYRQEHGKERELVAAITRRGGSTYYADSVKGRFTNSRDNAKNTVYLQMNSLKPEDTAVYYCAAEPRSVPAQYRSGDYWGQGTQVTVSS", "polyreactivity (PSR sort gate)": "high polyreactivity"}
{"sequence": "QVQLVDSGGALVQAGGSLRLSCAASGRTFRPNAMGWYRQAPGKERELVAVISWRGGRTYYADYVKGRFTISRDIAKNTVYLQMNSLKPEDTAVYYCGARVYLSGYGYNYWGQGTHVTVSS", "polyreactivity (PSR sort gate)": "high polyreactivity"}
{"sequence": "QVQLVDSGGAVVQAGGSLRLSCAASGYTFYRYAMGWYRQAPGKERELVAAMSRRGTRTYYADSVKGRFTISRDNAKNTVYLQMNSLKPEDTAVYFCNARRVRDVWWQLKRGDYWGQATQVTVSS", "polyreactivity (PSR sort gate)": "high polyreactivity"}
{"sequence": "QVQLVDSGGGIVQAGGSLRLSCAASGFIIAHYAMGWYRHAPGKERELVAAISWNGGRTYYADSVKGRFTISRDNAKNSVFFQRISLKPEDTAVYYCAADNRGTTVYYRNYYWGQGTQVTVSS", "polyreactivity (PSR sort gate)": "high polyreactivity"}
{"sequence": "QVQLVDSGGGLGQAGGSLRLSCAASGIIISGYAMGWYRQAPGKERELVASIRSGSNTYYADSVKGRFTISRDNAKNTVYLQKNSLNPEDTAVYYCAARVVPATFRFIRYPNTYYYWGQGSQVTVSS", "polyreactivity (PSR sort gate)": "low polyreactivity"}
{"sequence": "QVQLVDSGGGLVQAAGSLRLSCAASGRIFYYNAKGCYRQAPVKERELVAAITRSGGSTYYADSVKGRFTSSRDNAKHTVYLQMNSLKPEDTAVYYCAKPDRTGWLDGDYWGQGTQVTVSS", "polyreactivity (PSR sort gate)": "low polyreactivity"}
